Data published in patent US20150159134A1, “METHOD FOR PRODUCING RETINAL PIGMENT EPITHELIAL CELLS” (PFIZER LIMITED, priority 2013, published 2015).
“Also recorded” adds a separate entry of the source.

How the values were obtained:
Format in all cases: cell-based, human
Shef-1 hESCs [1] = experiment: Alternative BMP pathway activators, MITF expression (immunostaining, qPCR); conditions: Day 13; BMPs Day 6-9: 50-200 ng/ml BMP4/7 heterodimer, 200 ng/ml BMP4, 300 ng/ml BMP7, 100 ng/ml BMP2/6
Procedure: Shef-1 hESCs were seeded onto Matrigel coated 96-well plates at a density of 125000 cells/cm^2. […] On Day 9, BMPs were withdrawn and cells maintained in DMEM KSRXF alone for 4 days. On Day 13, MITF expression was tested by Immunostaining and qPCR analysis.

Shef-1 hESCs [2] = experiment: Induction of RPE markers MITF and PMEL17 by BMP pathway activation (qPCR, immunocytochemistry)
Procedure: This example illustrates the effect of a BMP pathway activator on RPE marker expression. Shef-1 hESCs were seeded onto Matrigel coated 96-well plates at a density of 125000 cells/cm^2. […] Cells for the uninduced control were left untreated. On Day 6, 100 ng/ml BMP4/7 or 100 ng/ml activin A+10 mM Nicotinamide or nothing was added to the media for 3 days. On Day 9, BMP4/7 or activin A and Nicotinamide were withdrawn and cells were treated with DMEM KSRXF alone for 4 days. Samples were prepared for RNA extraction and qPCR analysis.
Immunocytochemistry was carried out in 96-well or 384-well format. Media was aspirated and 50 μL 4% paraformaldehyde (PFA) was added to each well and incubated for 35 minutes at room temperature. PFA was aspirated and cells washed 3×100 uL PBS(+/+). Cells were incubated for 1 hour at room temperature in the dark in blocking buffer (PBS(+/+)/5% normal donkey serum (NDS)/0.3% TritonX100). 1° antibodies were made up in PBS(+/+)/1% normal donkey serum (NDS)/0.3% TritonX100. 60 μL 1° antibody solution was added to each well and incubated for 1 hour at room temperature in the dark. Solution was aspirated and cells washed 3×100 uL PBS(+/+). 2° antibodies were made up in PBS(+/+)/1% normal donkey serum (NDS)/0.3% TritonX100. 60 uL 2° antibody solution was added to each well and incubated for 1 hour at room temperature in the dark. […]

Shef-1 hESCs [3] = experiment: First replating step with supplemented media (immunocytochemistry, qPCR)
From the text: Cells replated at Day 12 were maintained from Day 9 to Day 12 in DMEM KSRXF alone before replating. […] Mature RPE cells sample obtained by spontaneous differentiation as disclosed in Example 10 (a) was used as a control to compare the similarity between the populations obtained upon the first replating step of directed differentiation and mature RPE cells. 19 days post replating, cells were fixed for immunocytochemistry and samples were collected for qPCR. […] QPCR analysis with a panel of markers also indicated Day 9 to be the optimum time for replating (FIGS. 4C, 4D and 4E). Similar results were obtained when cells were cultured on different matrices e.g Matrigel, Cellstart or Fibronectin before and after replate.

WA26 hESCs = experiment: Duration of exposure to activin A (CRALBP immunostaining); conditions: 100 ng/ml activin A
Procedure: On Day 9, cells were replated into 96 well CellBind plates coated with Matrigel or Cellstart at a density of 500000 cells/cm^2. The cells were maintained in either DMEM KSRXF alone or DMEM KSRXF supplemented with 100 ng/ml activin A for different lengths of time e.g 3 days, 5 days, 10 days or 18 days. At D9-18, cells were fixed for immunostaining and stained for CRALBP, a marker of RPE cells.

[4] = test system: induced pluripotent cells (iPSCs); experiment: Directed differentiation of iPSCs (immunostaining); conditions: following replating at Day 9 in the presence of Activin A
Procedure: The directed differentiation protocol was performed on induced pluripotent cells (iPSCs). IPSCs were generated from erythroblasts obtained from healthy volunteers and reprogrammed using the CytoTune-iPS Reprogramming kit (Life Technologies, A13780-01/02). IPSCs were seeded in E8 medium at a density of 240000 cells/cm^2 and differentiated to Day 9-19 of the directed differentiation protocol with early replating. Induced cells refer to cells treated with LDN193189/SB-431542 from Day 2 to Day 6 followed by BMP4/7 from Day 6 to Day 9. Uninduced cells are maintained without exposure to both LDN193189/SB-431542 and BMP4/7. Immunostaining was performed for markers of interest. […] Following the second replete step at Day 9-19 and culturing for a period of 45 days, iPSCs derived RPE expressed a panel of RPE markers to similar levels seen in RPE derived by directed differentiation from ES cells as obtained by the protocol of example 8 (see FIGS. 15E, 15F and 15G).

B1: BMP4/7: recombinant BMP4/7 heterodimer protein, BMP pathway activator (protein, UniProt P12644 293-408; P18075 293-431, looked up)
Bone morphogenetic protein 4: SPKHHSQRARKKNKNCRRHSLYVDFSDVGWNDWIVAPPGYQAFYCHGDCPFPLADHLNSTNHAIVQTLVNSVNSSIPKACCVPTELSAISMLYLDEYDKVVLKNYQEMVVEGCGCR
Bone morphogenetic protein 7: STGSKQRSQNRSKTPKNQEALRMANVAENSSSDQRQACKKHELYVSFRDLGWQDWIIAPEGYAAYYCEGECAFPLNSYMNATNHAIVQTLVHFINPETVPKPCCAPTQLNAISVLYFDDSSNVILKKYRNMVVRACGCH
modifications: heterodimer
- MITF expression (immunostaining and qPCR) (Shef-1 hESCs [1]): induced expression of MITF to a similar level
- expression of RPE markers MITF and PMEL17 (immunocytochemistry) (Shef-1 hESCs [2]; LDN193189/SB-431542 followed by BMP4/7): confirmed expression of RPE markers
- expression of RPE genes MITF and PMEL17 (qPCR) (Shef-1 hESCs [2]; added Day 6 for 3 days after 4 days LDN193189/SB-431542, 100 ng/ml BMP4/7 or 100 ng/ml activin A+10 mM Nicotinamide, vs uninduced or LDN193189/SB-431542 only controls): induced expression of RPE genes
- survival of replated cells (Shef-1 hESCs [3]; replated into DMEM KSRXF with 100 ng/ml BMP4/7): did not survive

B2: BMP4: BMP pathway activator (protein, UniProt P12644 293-408, looked up)
Bone morphogenetic protein 4: B1 Bone morphogenetic protein 4
- MITF expression (immunostaining and qPCR) (Shef-1 hESCs [1]): induced expression of MITF to a similar level

B3: BMP7: BMP pathway activator (protein, UniProt P18075 293-431, looked up)
Bone morphogenetic protein 7: B1 Bone morphogenetic protein 7
- MITF expression (immunostaining and qPCR) (Shef-1 hESCs [1]): induced expression of MITF to a similar level

B4: activin A: activin pathway activator (protein, UniProt P08476 311-426, looked up)
Inhibin beta A chain: GLECDGKVNICCKKQFFVSFKDIGWNDWIIAPSGYHANYCEGECPSHIAGTSGSSLSFHSTVINHYRMRGHSPFANLKSCCVPTKLRPMSMLYYDDGQNIIKKDIQNMIVEECGCS
- induction of RPE cells differentiation / RPE markers by short exposure (WA26 hESCs): sufficient for inducing RPE cells differentiation; also recorded: sufficient to induce expression of RPE markers
- mature RPE marker expression (CRALBP, MERTK) by immunocytochemistry (Shef-1 hESCs [3]; replating at D9, 100 ng/ml activin A, 19 days post replating): optimum and yielded high levels of RPE marker expression
- RPE marker CRALBP expression (immunostaining) [4]: upregulated
